The record followed here is patent US20100143336A1.

The experiment addresses human Toll-like Receptor 2, wild type (human) (UniProt O60603). The experiment can be described thus: cell-based or functional assay.
Chain of UniProt O60603 (O60603 21-784 D726E limits assumed): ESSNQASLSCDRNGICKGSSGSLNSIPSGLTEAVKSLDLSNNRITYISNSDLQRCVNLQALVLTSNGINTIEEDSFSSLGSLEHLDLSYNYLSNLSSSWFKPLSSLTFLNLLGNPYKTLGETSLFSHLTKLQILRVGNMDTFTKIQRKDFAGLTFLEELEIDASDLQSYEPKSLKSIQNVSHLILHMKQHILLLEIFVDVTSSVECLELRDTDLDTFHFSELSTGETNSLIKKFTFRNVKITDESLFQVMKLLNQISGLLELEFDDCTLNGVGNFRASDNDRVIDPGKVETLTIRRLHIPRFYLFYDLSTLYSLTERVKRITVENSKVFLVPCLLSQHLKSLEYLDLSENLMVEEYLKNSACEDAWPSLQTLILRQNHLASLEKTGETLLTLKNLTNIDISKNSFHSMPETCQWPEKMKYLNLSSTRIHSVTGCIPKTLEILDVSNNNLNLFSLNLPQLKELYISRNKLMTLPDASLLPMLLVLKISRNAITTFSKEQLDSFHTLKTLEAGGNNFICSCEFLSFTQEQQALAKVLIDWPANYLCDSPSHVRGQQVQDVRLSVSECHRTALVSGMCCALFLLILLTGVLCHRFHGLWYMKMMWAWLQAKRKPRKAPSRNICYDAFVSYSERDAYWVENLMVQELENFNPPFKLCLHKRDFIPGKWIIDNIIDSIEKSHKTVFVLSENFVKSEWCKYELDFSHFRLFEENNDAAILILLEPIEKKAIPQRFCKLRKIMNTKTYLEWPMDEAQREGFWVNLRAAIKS

As to “OPN-301 anti-TLR2 monoclonal antibody (mouse Toll-like Receptor 2 (TLR2) antibody, clone T2.5, HyCult Biotechnology)”, the TNF-alpha production from U937 cells stimulated with 100 ng/ml Pam3CSK4 came to 30 ng/mL.
